# Publication PMC5762878
# Key:
# [1] = target: Flavin reductase (FlaR), endogenous in S. pneumoniae WU2 (Streptococcus pneumoniae (endogenous in strain WU2)); assay: SDS-PAGE and immunoblot of cell fractions; cytoplasmic and cell-wall fractions of WU2 WT, immunoblotted with rabbit anti-rFlaR antiserum; bands at ~17 kDa and 34 kDa in the cytoplasm, 34 kDa band also in the cell-wall fraction
# [2] = target: Recombinant flavin reductase (rFlaR), HAT-tagged (Streptococcus pneumoniae (strain WU2)); assay: SDS-PAGE with or without β-mercaptoethanol + MALDI-TOF of the bands; HAT-tagged rFlaR purified on Ni-NTA under denaturing conditions; reducing gel: major band 22 kDa, minor 45 kDa; non-reducing gel: 45 kDa major, 22 kDa minor; both bands identified by in-gel digestion and MALDI-TOF and detected by rabbit anti-rFlaR antiserum
Substance,stoichiometry N [1],stoichiometry N [2]
"Flavin reductase (FlaR), endogenous in S. pneumoniae WU2 (from UniProt A0ACD7PR00 1-174) (enzyme)",2,–
"Recombinant flavin reductase (rFlaR), HAT-tagged (from UniProt A0ACD7PR00 1-174) (enzyme)",–,2
